Assay results: PMC6948192, “Structural Organization and Dynamics of Homodimeric Cytohesin Family Arf GTPase Exchange Factors in Solution and on Membranes” (Structure(London, England:1993), 2019)

Experiments:
[1] = target: the molecule itself; assay: SEC-SAXS; BioCAT 18-ID (APS); samples with 1.2 molar excess of IP4, concentrated to 10-20 mg/ml, Superdex-200 Increase; 20 mM Tris pH 8.0, 150 mM NaCl, 2 mM MgCl2, 0.1% 2-mercaptoethanol, 5% glycerol, 1 μM IP4; peak concentration ∼80 μM (Grp1 14-399), ∼1 mg/mL (Grp1 14-390)
[2] = target: the molecule itself; assay: SEC-SAXS; ARNOFL, no phosphoinositide head group; BM29 beamline (ESRF), Bio Sec300 HPLC column, 600 μg in 60 μL injected

Protein	stoichiometry N [1]	stoichiometry N [2]
Grp1_(14-399), diglycine variant, autoinhibited, in complex with the head group of PIP3 (IP4) (domain or fragment, mouse, UniProt O08967 14-399, looked up, Incubated with a 1.2 molar excess of inositol 1,3,4,5-tetrakisphosphate (IP4) before SEC-SAXS and NS-EM; source: E. coli BL21(DE3), purified (Ni-NTA, HiTrap Q, Superdex-200)) EDLSLEEREELLDIRRRKKELIDDIERLKYEIAEVMTEIDNLTSVEESKTTQRNKQIAMGRKKFNMDPKKGIQFLIENDLLQSSPEDVAQFLYKGEGLNKTVIGDYLGERDDFNIKVLQAFVELHEFADLNLVQALRQFLWSFRLPGEAQKIDRMMEAFASRYCLCNPGVFQSTDTCYVLSFAIIMLNTSLHNHNVRDKPTAERFITMNRGINEGGDLPEELLRNLYESIKNEPFKIPEDDGNDLTHTFFNPDREGWLLKLGGRVKTWKRRWFILTDNCLYYFEYTTDKEPRGIIPLENLSIREVEDPRKPNCFELYNPSHKGQVIKACKTEADGRVVEGNHVVYRISAPSPEEKEEWMKSIKASISRDPFYDMLATRKRRIANKK	2	
Grp1_(14-390), constitutively active construct lacking the polybasic motif (domain or fragment, mouse, UniProt O08967 14-390, looked up, Grp1 (cytohesin-3), mouse, diglycine splice variant, residues 14-390 (lacks the polybasic region); also called fully active Grp1 dimer; source: E. coli BL21(DE3), purified (Ni-NTA, HiTrap Q, Superdex-200)) EDLSLEEREELLDIRRRKKELIDDIERLKYEIAEVMTEIDNLTSVEESKTTQRNKQIAMGRKKFNMDPKKGIQFLIENDLLQSSPEDVAQFLYKGEGLNKTVIGDYLGERDDFNIKVLQAFVELHEFADLNLVQALRQFLWSFRLPGEAQKIDRMMEAFASRYCLCNPGVFQSTDTCYVLSFAIIMLNTSLHNHNVRDKPTAERFITMNRGINEGGDLPEELLRNLYESIKNEPFKIPEDDGNDLTHTFFNPDREGWLLKLGGRVKTWKRRWFILTDNCLYYFEYTTDKEPRGIIPLENLSIREVEDPRKPNCFELYNPSHKGQVIKACKTEADGRVVEGNHVVYRISAPSPEEKEEWMKSIKASISRDPFYDMLAT	2	
Full-length ARNO carrying a 3G sequence in the membrane-binding site (ARNOFL) (natural protein, human, UniProt Q99418 1-400, looked up, Cloned in pET-8c (Antonny et al., 1997); also called Cytohesin-2; source: E. coli, purified (Ni-NTA HisTrap FF, Superdex 200)) MEDGVYEPPDLTPEERMELENIRRRKQELLVEIQRLREELSEAMSEVEGLEANEGSKTLQRNRKMAMGRKKFNMDPKKGIQFLVENELLQNTPEEIARFLYKGEGLNKTAIGDYLGEREELNLAVLHAFVDLHEFTDLNLVQALRQFLWSFRLPGEAQKIDRMMEAFAQRYCLCNPGVFQSTDTCYVLSFAVIMLNTSLHNPNVRDKPGLERFVAMNRGINEGGDLPEELLRNLYDSIRNEPFKIPEDDGNDLTHTFFNPDREGWLLKLGGGRVKTWKRRWFILTDNCLYYFEYTTDKEPRGIIPLENLSIREVDDPRKPNCFELYIPNNKGQLIKACKTEADGRVVEGNHMVYRISAPTQEEKDEWIKSIQAAVSVDPFYEMLAARKKRISVKKKQEQP		2
